± gives the standard deviation of the averaged measurements.
Assay: total protein half-life in vivo (active degradation + dilution); higher = more stable protein
[1] = E. coli NCM3722 delta-clpP delta-lon delta-hslV, growth: N-lim chemostat, doubling time 6 h
[2] = E. coli NCM3722 delta-clpP, growth: N-lim chemostat, doubling time 6 h
[3] = E. coli NCM3722 delta-hslV, growth: N-lim chemostat, doubling time 6 h
[4] = E. coli NCM3722 delta-lon, growth: N-lim chemostat, doubling time 6 h
[5] = E. coli NCM3722 delta-smpB, growth: N-lim chemostat, doubling time 6 h
[6] = wild type E. coli NCM3722, growth: C-lim chemostat, doubling time 3 h
[7] = wild type E. coli NCM3722, growth: C-lim chemostat, doubling time 6 h
[8] = wild type E. coli NCM3722, growth: C-lim chemostat, doubling time 12 h
[9] = wild type E. coli NCM3722, growth: N-lim chemostat, doubling time 6 h
[10] = wild type E. coli NCM3722, growth: N-lim chemostat, doubling time 12 h
[11] = wild type E. coli NCM3722, growth: P-lim chemostat, doubling time 6 h
[12] = wild type E. coli NCM3722, growth: P-lim chemostat, doubling time 12 h

## MIFTSSCCDNLSIDEIIERAEKGDCEAQYIVGFYYNRDSAIDSPDDEKAFYWLKLAAEQGHCEAQYSLGQKYTEDKSRHKDNEQAIFWLKKAALQGHTFASNALGWTLDRGEAPNYKEAVVWYQIAAESGMSYAQNNLGWMYRNGNGVAKDYALAFFWYKQAALQGHSDAQNNLADLYEDGKGVAQNKTLAAFWYLKSAQQGNRHAQFQIAWDYNAGEGVDQDYKQAMYWYLKAAAQGSVGAYVNIGYMYKHGQGVEKDYQAAFEWFTKAAECNDATAWYNLAIMYHYGEGRPVDLRQALDLYRKVQSSGTRDVSQEIRETEDLL
[1]
  total protein half-life in vivo: 6.2 h

## MQLRKPATAILALALSAGLAQADDAAPAAGSTLDKIAKNGVIVVGHRESSVPFSYYDNQQKVVGYSQDYSNAIVEAVKKKLNKPDLQVKLIPITSQNRIPLLQNGTFDFECGSTTNNVERQKQAAFSDTIFVVGTRLLTKKGGDIKDFANLKDKAVVVTSGTTSEVLLNKLNEEQKMNMRIISAKDHGDSFRTLESGRAVAFMMDDALLAGERAKAKKPDNWEIVGKPQSQEAYGCMLRKDDPQFKKLMDDTIAQVQTSGEAEKWFDKWFKNPIPPKNLNMNFELSDEMKALFKEPNDKALN
[1]
  total protein half-life in vivo: 6.32 ± 0.97 h
[2]
  total protein half-life in vivo: 6.45 ± 1.6 h
[3]
  total protein half-life in vivo: 6.8 ± 0.39 h
[4]
  total protein half-life in vivo: 7.14 ± 0.3 h
[5]
  total protein half-life in vivo: 6.02 ± 0.43 h
[6]
  total protein half-life in vivo: 3.26 ± 0.14 h
[7]
  total protein half-life in vivo: 6.76 ± 0.34 h
[8]
  total protein half-life in vivo: 11.3 ± 0.22 h
[9]
  total protein half-life in vivo: 5.9 ± 0.54 h
[10]
  total protein half-life in vivo: 14.1 ± 0.48 h
[11]
  total protein half-life in vivo: 5.81 ± 0.41 h
[12]
  total protein half-life in vivo: 13.2 ± 0.35 h

## MKKALQVAMFSLFTVIGFNAQANEHHHETMSEAQPQVISATGVVKGIDLESKKITIHHDPIAAVNWPEMTMRFTITPQTKMSEIKTGDKVAFNFVQQGNLSLLQDIKVSQ
[2]
  total protein half-life in vivo: 2.72 h
[3]
  total protein half-life in vivo: 5.07 ± 1 h
[4]
  total protein half-life in vivo: 5.07 ± 0.12 h
[5]
  total protein half-life in vivo: 4.22 h
[6]
  total protein half-life in vivo: 2.8 h
[7]
  total protein half-life in vivo: 4.69 h
[8]
  total protein half-life in vivo: 6.31 ± 4.1 h
[9]
  total protein half-life in vivo: 4.84 ± 0.35 h
[10]
  total protein half-life in vivo: 7.67 ± 1.3 h
[11]
  total protein half-life in vivo: 4.39 ± 1 h
[12]
  total protein half-life in vivo: 7.41 ± 1.9 h

## MLQLLLAVFIGGGTGSVARWLLSMRFNPLHQAIPLGTLTANLIGAFIIGIGFAWFSRMTNIDPVWKVLITTGFCGGLTTFSTFSAEVVFLLQEGRFGWALLNVFVNLLGSFAMTALAFWLFSASTAH
[3]
  total protein half-life in vivo: 5.83 h

## MTNYRVESSSGRAARKMRLALMGPAFIAAIGYIDPGNFATNIQAGASFGYQLLWVVVWANLMAMLIQILSAKLGIATGKNLAEQIRDHYPRPVVWFYWVQAEIIAMATDLAEFIGAAIGFKLILGVSLLQGAVLTGIATFLILMLQRRGQKPLEKVIGGLLLFVAAAYIVELIFSQPNLAQLGKGMVIPSLPTSEAVFLAAGVLGATIMPHVIYLHSSLTQHLHGGSRQQRYSATKWDVAIAMTIAGFVNLAMMATAAAAFHFSGHTGVADLDEAYLTLQPLLSHAAATVFGLSLVAAGLSSTVVGTLAGQVVMQGFIRFHIPLWVRRTVTMLPSFIVILMGLDPTRILVMSQVLLSFGIALALVPLLIFTSDSKLMGDLVNSKRVKQTGWVIVVLVVALNIWLLVGTALGL [P0A769]
[1]
  total protein half-life in vivo: 2.46 h
[2]
  total protein half-life in vivo: 3.02 h
[3]
  total protein half-life in vivo: 2.87 h
[5]
  total protein half-life in vivo: 2.15 ± 0.48 h
[6]
  total protein half-life in vivo: 1.29 h
[8]
  total protein half-life in vivo: 3.66 h
[9]
  total protein half-life in vivo: 2.23 ± 1.2 h
[10]
  total protein half-life in vivo: 3.65 ± 1.2 h
[11]
  total protein half-life in vivo: 2.19 h

## MERLLIVNADDFGLSKGQNYGIIEACRNGIVTSTTALVNGQAIDHAVQLSRDEPSLAIGMHFVLTMGKPLTAMPGLTRDGVLGKWIWQLAEEDALPLEEITQELVSQYLRFIELFGRKPTHLDSHHHVHMFPQIFPIVARFAAEQGIALRADRQMAFDLPVNLRTTQGFSSAFYGEEISESLFLQVLDDAGHRGDRSLEVMCHPAFIDNTIRQSAYCFPRLTELDVLTSASLKGAIAQRGYRLGSYRDV
[2]
  total protein half-life in vivo: 3.19 ± 0.45 h
[3]
  total protein half-life in vivo: 3.38 h
[4]
  total protein half-life in vivo: 3.55 ± 0.42 h
[5]
  total protein half-life in vivo: 2.945 ± 0.014 h
[6]
  total protein half-life in vivo: 2.86 ± 0.21 h
[7]
  total protein half-life in vivo: 4.51 ± 0.39 h
[8]
  total protein half-life in vivo: 7.9 ± 0.51 h
[9]
  total protein half-life in vivo: 3.27 ± 0.43 h
[10]
  total protein half-life in vivo: 4.74 ± 0.26 h
[11]
  total protein half-life in vivo: 5.12 ± 0.14 h
[12]
  total protein half-life in vivo: 10.1 ± 0.26 h

## MRYLNTKNIIAAGVLLSCMSSIAWGAIIPDRTRIIMNESDKGEALKLTNQSKNLPYLAQTWIEDTKGNKSRDFIVTVPPMVRLNPSEQIQIRMITQEKIAQLPKDRETLFYFNVREIPPKTDKKNVMQVTMQHALKLFWRPKAIELEDDGVMTYEKVEIIRRNDGSIRFNNKMPYHVTLGYIGTNGVTMLPQTQSLMVTPFSYANTQFKNVPSTFQVGYINDFGGLSFYEINCPVVNNICNISVANRDQ
[5]
  total protein half-life in vivo: 5.38 h
[9]
  total protein half-life in vivo: 5.39 h
[10]
  total protein half-life in vivo: 11.3 h
[11]
  total protein half-life in vivo: 5.6 h
[12]
  total protein half-life in vivo: 14.3 h

## MLELNAKTTALVVIDLQEGILPFAGGPHTADEVVNRAGKLAAKFRASGQPVFLVRVGWSADYAEALKQPVDAPSPAKVLPENWWQHPAALGATDSDIEIIKRQWGAFYGTDLELQLRRRGIDTIVLCGISTNIGVESTARNAWELGFNLVIAEDACSAASAEQHNNSINHIYPRIARVRSVEEILNAL [P0ADI7]
[1]
  total protein half-life in vivo: 5.53 ± 0.15 h
[2]
  total protein half-life in vivo: 5.05 ± 0.3 h
[3]
  total protein half-life in vivo: 4.968 ± 0.024 h
[5]
  total protein half-life in vivo: 5.08 ± 0.54 h
[6]
  total protein half-life in vivo: 3.07 ± 0.33 h
[7]
  total protein half-life in vivo: 5.75 ± 0.29 h
[8]
  total protein half-life in vivo: 10.9 ± 0.94 h
[9]
  total protein half-life in vivo: 5.19 ± 0.59 h
[10]
  total protein half-life in vivo: 9.838 ± 0.087 h
[11]
  total protein half-life in vivo: 5.81 ± 0.12 h
[12]
  total protein half-life in vivo: 12.7 ± 0.69 h

## MHNQAPIQRRKSTRIYVGNVPIGDGAPIAVQSMTNTRTTDVEATVNQIKALERVGADIVRVSVPTMDAAEAFKLIKQQVNVPLVADIHFDYRIALKVAEYGVDCLRINPGNIGNEERIRMVVDCARDKNIPIRIGVNAGSLEKDLQEKYGEPTPQALLESAMRHVDHLDRLNFDQFKVSVKASDVFLAVESYRLLAKQIDQPLHLGITEAGGARSGAVKSAIGLGLLLSEGIGDTLRVSLAADPVEEIKVGFDILKSLRIRSRGINFIACPTCSRQEFDVIGTVNALEQRLEDIITPMDVSIIGCVVNGPGEALVSTLGVTGGNKKSGLYEDGVRKDRLDNNDMIDQLEARIRAKASQLDEARRIDVQQVEK
[1]
  total protein half-life in vivo: 4.85 ± 0.2 h
[2]
  total protein half-life in vivo: 2.41 ± 0.11 h
[3]
  total protein half-life in vivo: 3.23 ± 0.18 h
[4]
  total protein half-life in vivo: 3.18 ± 0.078 h
[5]
  total protein half-life in vivo: 2.88 ± 0.19 h
[6]
  total protein half-life in vivo: 2.61 ± 0.25 h
[7]
  total protein half-life in vivo: 4.69 ± 0.24 h
[8]
  total protein half-life in vivo: 7.78 ± 0.65 h
[9]
  total protein half-life in vivo: 3.05 ± 0.092 h
[10]
  total protein half-life in vivo: 4.29 ± 0.3 h
[11]
  total protein half-life in vivo: 4.01 ± 0.28 h
[12]
  total protein half-life in vivo: 7.02 ± 0.51 h
